Test results: article PMC11190292, “Hetero-oligomerization of TDP-43 carboxy-terminal fragments with cellular proteins contributes to proteotoxicity” (Communications Biology, 2024)

Target: the molecule itself
Test: fluorescence correlation spectroscopy (FCS); soluble supernatant of transfected Neuro2a cell lysate (50 mM Hepes-KOH pH 7.5, 150 mM NaCl, 1% Nonidet P-40); counts per particle (CPP) against GFP monomers as read-out of homo-oligomerisation, diffusion time as read-out of size

B1: GFP-tagged TDP-43 carboxy-terminal fragment 233-414 (C233) (domain or fragment, human, UniProt Q13148 233-414, looked up)
chain: TFADDQIAQSLCGEDLIIKGISVHISNAEPKHNSNRQLERSGRFGGNPGGFGNQGGFGNSRGGGAGLGNNQGSNMGGGMNFGAFSINPAMMAAAQAALQSSWGMMGMLASQQNQSGPSGNNQNQGNMQREPNQAFGSGNNSYSGSNSGAAIGWGSASNAGSGSGFNGGFGSSMDSKSSGWGM
notes: Cloned into pmeGFP-C1 (HindIII/BamHI); also called G-C233; GFP-C233; source: Neuro2a, transfected, in lysate; not shown: GFP (monomeric enhanced GFP, A206K), N-terminal, kept
  counts per particle (CPP) relative to GFP monomers: ~4 fold
